Results on 78 sequences are retold here after the supplement of paper PMC7877785.

A short description of the data set: self-splicing fitness, log relative to wild type (ln ratio); higher = more splicing; Tetrahymena group I intron in knt gene, E. coli kanamycin selection, DiMSum; sequences stand for … in CUCUCU…GGAGGGAAAAGUUAUCAGGCAUGCACCUGGUAGCUAGUCUUUAAACCAAUAGAUUGCAUCGGUUUAAAAGGCAAGACCGUCAAAUUGCGGGAAAGGGGUCAACAGCCGUUCAGUACCAAGUCUCAGGGGAAACUUUGAGAUGGCCUUGCAAAGGGUAUGGUAAUAAGCUGACGGACAUGGUCCUAACCACGCAGCCAAGUCCUAAGUCAACAGAUCUUCUGUUGAUAUGGAUGCAGUUCACAGACUAAAUGUCGGUCGGGGAAGAUGUAUUCUUCUCAUAAGAUAUAGUCGGACCUCUCCUUAAUGGGAGCUAGCGGAUGAAGUGAUGCAACACUGGAGCCGCUGGGAACUAAUUUGUAUGCGAAAGUAUAUUGAUUAGUUUUGGAGUACUCGUGGUCG
In a few lines: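 DiMSum derived fitness as the error-weighted combination of fold changes across replicates, kanamycin versus no kanamycin, normalised to wild type. E. coli BL21(DE3) held the library, which randomised all eight P1ex-region intron nucleotides within the knt kanamycin-resistance gene on pET-22b(+). Six replicate transformations grew overnight at 37°C or 30°C on LB agar with or without 25 μg/mL kanamycin, also containing 100 μg/mL carbenicillin, 50 μM IPTG and 0.2% rhamnose, and pooled colonies were amplicon-sequenced on an Illumina HiSeq 2500.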

± gives the uncertainty stated by the source.

For GGUGAGCAAUAUUACGGUGU, the “self-splicing fitness (ln)” value was -3.9 ± 0.36 (30 °C) and -2.05 ± 0.31 (37 °C). For UGGGAGCAAUAUUACGCUUA the same measures were -2.55 ± 0.11 and -0.767 ± 0.098.

In the case of CCCCAGCAAUAUUACGUGGA, the “self-splicing fitness (ln)” value runs as follows: (30 °C) -3.09 ± 0.086; (37 °C) -1.23 ± 0.068. Turning to AAUCAGCAAUAUUACGAUGC, the “self-splicing fitness (ln)” value reads like this: (30 °C) -0.408 ± 0.076; (37 °C) 0.219 ± 0.096. With CUACAGCAAUAUUACGUUAA, the “self-splicing fitness (ln)” value is -3.48 ± 0.21 (30 °C) and -2.94 ± 0.2 (37 °C). Turning to UGGCAGCAAUAUUACGACUU, the “self-splicing fitness (ln)” value was 0.0485 ± 0.093 (30 °C) and 0.468 ± 0.1 (37 °C). For ACCUAGCAAUAUUACGGCAG the same measures were -3.99 ± 0.19 and -1.16 ± 0.14. Regarding UCUGAGCAAUAUUACGAGCA, the “self-splicing fitness (ln)” value (37 °C) is -2.23 ± 0.36. Regarding UUCUAGCAAUAUUACGGAGC, the “self-splicing fitness (ln)” value (30 °C) is -2.48 ± 0.44. AAGGAGCAAUAUUACGCCGU: the “self-splicing fitness (ln)” value (30 °C) is -1.14 ± 0.27 and the “self-splicing fitness (ln)” value (37 °C) was -1.16 ± 0.37.

Turning to AACUAGCAAUAUUACGCGAG, the “self-splicing fitness (ln)” value by setting is: (30 °C) -1.82 ± 0.11; (37 °C) -0.501 ± 0.12. The like results for UAACAGCAAUAUUACGACAA were, in that order, -0.503 ± 0.094 and 0.136 ± 0.096. On to UACAAGCAAUAUUACGUACU, for which the “self-splicing fitness (ln)” value was -2.71 ± 0.14 (30 °C) and -1.45 ± 0.13 (37 °C). For CUCAAGCAAUAUUACGAUUG, the “self-splicing fitness (ln)” value was -3.85 ± 0.18 (30 °C) and -2.5 ± 0.17 (37 °C). The like results for GCGAAGCAAUAUUACGCUCG were, in that order, -2.95 ± 0.29 and -2.12 ± 0.27. The like results for CCGCAGCAAUAUUACGGAUA were, in that order, -4.16 ± 0.22 and -2.91 ± 0.23. As to CCGAAGCAAUAUUACGAAGG, the “self-splicing fitness (ln)” value reads like this: (30 °C) -4.66 ± 0.46; (37 °C) -2.15 ± 0.27. In the case of UAAAAGCAAUAUUACGAUUG, the “self-splicing fitness (ln)” value by setting is: (30 °C) -1.18 ± 0.087; (37 °C) -0.639 ± 0.11. The like results for GUCCAGCAAUAUUACGCACC were, in that order, -2 ± 0.17 and -0.64 ± 0.17.

Regarding GGACAGCAAUAUUACGAAUC, the “self-splicing fitness (ln)” value is, setting by setting: (30 °C) -0.0402 ± 0.12; (37 °C) 0.32 ± 0.17. For GGUAAGCAAUAUUACGGGGG the same measures were -3.98 ± 0.46 and -3.13 ± 0.2. Regarding GACCAGCAAUAUUACGGUAA, the “self-splicing fitness (ln)” value was 0.0402 ± 0.06 (30 °C) and -0.0565 ± 0.071 (37 °C). For AAGCAGCAAUAUUACGCCCU the same measures were -0.309 ± 0.14 and 0.0798 ± 0.18. Take GAGCAGCAAUAUUACGACAG: the “self-splicing fitness (ln)” value (30 °C) was -3.25 ± 0.21 and the “self-splicing fitness (ln)” value (37 °C) is -2.6 ± 0.27. As for CAGUAGCAAUAUUACGUGCA, the “self-splicing fitness (ln)” value runs as follows: (30 °C) -3.14 ± 0.13; (37 °C) -2.45 ± 0.14. The like results for GCAUAGCAAUAUUACGUAGA were, in that order, -2.41 ± 0.16 and -0.999 ± 0.17. For AUCUAGCAAUAUUACGCAUG the same measures were -1.88 ± 0.13 and -0.806 ± 0.12. With GCAUAGCAAUAUUACGGGCC, the “self-splicing fitness (ln)” value (37 °C) is -1.97 ± 0.27. With UCAUAGCAAUAUUACGGUCC, the “self-splicing fitness (ln)” value runs as follows: (30 °C) -3.53 ± 0.37; (37 °C) -1.81 ± 0.35.

As to AUGGAGCAAUAUUACGCUUC, for the setting “37 °C”, the “self-splicing fitness (ln)” value was -1.28 ± 0.32. UCUGAGCAAUAUUACGUUUA: the “self-splicing fitness (ln)” value was -2.83 ± 0.17 (30 °C) and -2.65 ± 0.19 (37 °C). For UCGCAGCAAUAUUACGGAAU the same measures were -2.75 ± 0.27 and -2.5 ± 0.26. In the case of AUCCAGCAAUAUUACGAUCC, the “self-splicing fitness (ln)” value is -1.43 ± 0.21 (30 °C) and -0.865 ± 0.21 (37 °C). In the case of UACGAGCAAUAUUACGCAUC, the “self-splicing fitness (ln)” value (37 °C) is -1.96 ± 0.21. Still for that read-out and setting: for GGGAAGCAAUAUUACGAAGA the value was -0.943 ± 0.23. On to CUGCAGCAAUAUUACGUAGG, for which the “self-splicing fitness (ln)” value reads like this: (30 °C) -0.76 ± 0.057; (37 °C) -0.512 ± 0.07. UUGUAGCAAUAUUACGUAUU: the “self-splicing fitness (ln)” value reads like this: (30 °C) -3.29 ± 0.32; (37 °C) -2.45 ± 0.3. For CUGCAGCAAUAUUACGACAC the same measures were -3.35 ± 0.23 and -3.61 ± 0.33. The like results for GUCUAGCAAUAUUACGUUCG were, in that order, -0.604 ± 0.18 and -0.859 ± 0.17.

As to UCGUAGCAAUAUUACGCGGU, the “self-splicing fitness (ln)” value by setting is: (30 °C) -2.32 ± 0.15; (37 °C) -1.6 ± 0.18. For AACUAGCAAUAUUACGUUGU the same measures were -3.51 ± 0.13 and -2.29 ± 0.12. As to CUUGAGCAAUAUUACGGGCU, the “self-splicing fitness (ln)” value (37 °C) was -1.91 ± 0.25. On to ACCCAGCAAUAUUACGCACG, for which the “self-splicing fitness (ln)” value is, setting by setting: (30 °C) -1.86 ± 0.067; (37 °C) -1.01 ± 0.084. For UCGGAGCAAUAUUACGGCGA the same measures were -1.1 ± 0.18 and -0.689 ± 0.23.

Regarding CUAAAGCAAUAUUACGGGUU, the “self-splicing fitness (ln)” value is -4.13 ± 0.28 (30 °C) and -3.49 ± 0.33 (37 °C). For CCACAGCAAUAUUACGCAAU the same measures were -3.41 ± 0.2 and -2.66 ± 0.25. The like results for AGUUAGCAAUAUUACGGCGG were, in that order, -0.53 ± 0.085 and -0.514 ± 0.13. For CGGCAGCAAUAUUACGCGAG the same measures were -2.86 ± 0.14 and -2.37 ± 0.14. As for AGCAAGCAAUAUUACGAAGC, the “self-splicing fitness (ln)” value (30 °C) was -3.28 ± 0.31. As to UGCUAGCAAUAUUACGCGCU, the “self-splicing fitness (ln)” value is -1.96 ± 0.12 (30 °C) and -0.777 ± 0.13 (37 °C). For the sequence AGCGAGCAAUAUUACGAAAU, the “self-splicing fitness (ln)” value (30 °C) was -2.79 ± 0.23 and the “self-splicing fitness (ln)” value (37 °C) was -2.39 ± 0.42. The like results for CUACAGCAAUAUUACGUGUG were, in that order, -1.63 ± 0.055 and -0.0421 ± 0.061.

As to GUACAGCAAUAUUACGCGAG, the “self-splicing fitness (ln)” value runs as follows: (30 °C) -1.73 ± 0.094; (37 °C) -1.85 ± 0.12. The like results for UAAUAGCAAUAUUACGCCCA were, in that order, -1.36 ± 0.19 and 0.129 ± 0.26. On to UCUUAGCAAUAUUACGUUUU, for which the “self-splicing fitness (ln)” value (37 °C) was -1.8 ± 0.23. As to AUAUAGCAAUAUUACGGCAA, the “self-splicing fitness (ln)” value (30 °C) was -0.751 ± 0.18 and the “self-splicing fitness (ln)” value (37 °C) is -0.989 ± 0.19. For the sequence UAGGAGCAAUAUUACGCAUA, the “self-splicing fitness (ln)” value was -2.01 ± 0.19 (30 °C) and -1.78 ± 0.17 (37 °C).

For CGUUAGCAAUAUUACGUUGA, the “self-splicing fitness (ln)” value (30 °C) is -3.1 ± 0.22 and the “self-splicing fitness (ln)” value (37 °C) is -2.25 ± 0.17.

Consider CCGUAGCAAUAUUACGCCUG, for which the “self-splicing fitness (ln)” value is -0.012 ± 0.085 (30 °C) and -0.0205 ± 0.084 (37 °C). The like results for ACAGAGCAAUAUUACGCGAG were, in that order, -2.31 ± 0.14 and -2.43 ± 0.16. As to GGGUAGCAAUAUUACGCUUC, the “self-splicing fitness (ln)” value (30 °C) was -2.91 ± 0.25. Consider GCCUAGCAAUAUUACGGGAG, for which the “self-splicing fitness (ln)” value reads like this: (30 °C) -0.724 ± 0.094; (37 °C) -0.391 ± 0.094.

In the case of GGCAAGCAAUAUUACGGUAC, the “self-splicing fitness (ln)” value is -0.729 ± 0.072 (30 °C) and -0.752 ± 0.09 (37 °C).

Take AGCAAGCAAUAUUACGGAUC: the “self-splicing fitness (ln)” value reads like this: (30 °C) -2.73 ± 0.17; (37 °C) -1.08 ± 0.16.

With UAUGAGCAAUAUUACGAAUC, the “self-splicing fitness (ln)” value (37 °C) was -1.07 ± 0.26. Turning to AGCGAGCAAUAUUACGUGCA, the “self-splicing fitness (ln)” value is -1.78 ± 0.14 (30 °C) and -1.21 ± 0.14 (37 °C).

Consider AAGCAGCAAUAUUACGGUGU, for which the “self-splicing fitness (ln)” value (30 °C) is -1.85 ± 0.09 and the “self-splicing fitness (ln)” value (37 °C) was -0.979 ± 0.12. For AUUGAGCAAUAUUACGCAUA the same measures were -3 ± 0.21 and -2.47 ± 0.24. The like results for UUCCAGCAAUAUUACGUCGU were, in that order, -4.1 ± 0.19 and -1.85 ± 0.12. On to UCGGAGCAAUAUUACGUUAU, for which the “self-splicing fitness (ln)” value runs as follows: (30 °C) -3.36 ± 0.38; (37 °C) -2.11 ± 0.38. As to UAUUAGCAAUAUUACGCGUU, the “self-splicing fitness (ln)” value was -3.05 ± 0.19 (30 °C) and -0.613 ± 0.15 (37 °C). For UUGUAGCAAUAUUACGUCGG the same measures were -1.21 ± 0.094 and -0.478 ± 0.093. For UCUAAGCAAUAUUACGGUUC, the “self-splicing fitness (ln)” value by setting is: (30 °C) -3.4 ± 0.19; (37 °C) -2.39 ± 0.2. With ACGAAGCAAUAUUACGAUUG, the “self-splicing fitness (ln)” value by setting is: (30 °C) -2.46 ± 0.14; (37 °C) -0.909 ± 0.15. Turning to UGACAGCAAUAUUACGAGAU, the “self-splicing fitness (ln)” value runs as follows: (30 °C) -3.55 ± 0.23; (37 °C) -2.86 ± 0.26. The like results for GGGGAGCAAUAUUACGAUUU were, in that order, -2.01 ± 0.16 and -0.868 ± 0.16. The like results for AGGAAGCAAUAUUACGACUU were, in that order, 0.00163 ± 0.064 and -0.239 ± 0.084. For GUGAAGCAAUAUUACGCGUG, the “self-splicing fitness (ln)” value is -0.812 ± 0.057 (30 °C) and -0.134 ± 0.061 (37 °C).
